Experimental data: PMC11886824 (Nucleic Acids Research, 2025)
Where a chain is given by its changes, count along the chain named. Like-named read-outs stand apart in the source and are kept apart here.

Columns and labels:
cryo-EM structure = molecular target: the molecule itself; assay: cryo-EM structure
P12 WT [1] = molecular target: T1, P12 WT (Enterobacteria phage PRD1, UniProt P17637 1-160); assay: EMSA
T1 sequence: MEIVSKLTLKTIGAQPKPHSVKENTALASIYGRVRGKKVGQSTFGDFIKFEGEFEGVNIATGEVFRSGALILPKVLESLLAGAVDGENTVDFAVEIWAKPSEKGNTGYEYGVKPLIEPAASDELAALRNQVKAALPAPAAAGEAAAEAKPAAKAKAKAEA

P12 WT [2] = molecular target: T1, P12 WT; assay: EMSA; remark: listed apart in the source
P12 WT [3] = molecular target: T1, P12 WT; assay: EMSA; remark: listed apart in the source
P12 F44A+K10A (M2) = molecular target: T2, P12 F44A+K10A (M2) (Enterobacteria phage PRD1, UniProt P17637 1-160, K10A;F44A); assay: EMSA
T2 sequence: T1 sequence with K10A, F44A

P12(1-122) (T3) = molecular target: T3, P12(1-122) (T3) (Enterobacteria phage PRD1, UniProt P17637 1-122, del123-160); assay: EMSA
T3 sequence: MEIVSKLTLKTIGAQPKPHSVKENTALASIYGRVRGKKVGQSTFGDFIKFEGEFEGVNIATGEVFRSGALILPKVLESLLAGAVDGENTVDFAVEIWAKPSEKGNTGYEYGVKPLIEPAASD

B1: P12, single-stranded DNA-binding protein from bacteriophage PRD1 (natural protein, UniProt P17637 1-160, looked up)
chain: T1 sequence
B1: binds (cryo-EM structure).

B2: ssDNA (non-repetitive)50 (ssDNA)
DNA: GATCACAGTGAGTACAATAGAACGACGGCCAGTTGTCTCAATCTAACGGC
B2: binds (P12 WT [1]).

B3: ssDNA (non-repetitive)40 (ssDNA)
DNA: AGAGACAACTGGCCGTCGTTCTATTGTACTCACTGTGATC
B3: binds (P12 WT [2]).

B4: ssDNA (non-repetitive)80 (ssDNA)
DNA: AGAGACAACTGGCCGTCGTTCTATTGTACTCACTGTGATCAGAGACAACTGGCCGTCGTTCTATTGTACTCACTGTGATC
In the case of B4, the Kd (P12 WT [3]) is reported as 350 nM, the binding result (P12 F44A+K10A (M2)) is reported as “no binding” and the binding result (P12(1-122) (T3)) is reported as “no binding”.

B5: ssRNA (non-repetitive)50 (ssRNA)
RNA: GAAAAUAAAAAUAAACUGGACAAUUAAGGAUCCUGUACAAGUCGACGCGG
B5: no binding (P12 WT [1]).
